This is an account of results in US20030143712A1 (J DAVID GLADSTONE INSTITUTES, published 2003).

First the molecules themselves.
B1: GST-HDAC4(aa 612-1084) (enzyme, human, UniProt P56524 612-1084, looked up)
chain: MEAAGIPVSFGGHRPLSRAQSSPASATFPVSVQEPPTKPRFTTGLVYDTLMLKHQCTCGSSSSHPEHAGRIQSIWSRLQETGLRGKCECIRGRKATLEELQTVHSEAHTLLYGTNPLNRQKLDSKKLLGSLASVFVRLPCGGVGVDSDTIWNEVHSAGAARLAVGCVVELVFKVATGELKNGFAVVRPPGHHAEESTPMGFCYFNSVAVAAKLLQQRLSVSKILIVDWDVHHGNGTQQAFYSDPSVLYMSLHRYDDGNFFPGSGAPDEVGTGPGVGFNVNMAFTGGLDPPMGDAEYLAAFRTVVMPIASEFAPDVVLVSSGFDAVEGHPTPLGGYNLSARCFGYLTKQLMGLAGGRIVLALEGGHDLTAICDASEACVSALLGNELDPLPEKVLQQRPNANAVRSMEKVMEIHSKYWRCLQRTTSTAGRSLIEAQTCENEEAETVTAMASLSVGVKPAEKRPDEEPMEEEPPL
notes: range 612-1084; also called recombinant fusion protein corresponding to the catalytically active domain of HDAC4; not shown: glutathione-S-transferase (GST), fusion partner
B5: endogenous HDAC3 (enzyme, UniProt O15379 1-428, looked up)
chain: MAKTVAYFYDPDVGNFHYGAGHPMKPHRLALTHSLVLHYGLYKKMIVFKPYQASQHDMCRFHSEDYIDFLQRVSPTNMQGFTKSLNAFNVGDDCPVFPGLFEFCSRYTGASLQGATQLNNKICDIAINWAGGLHHAKKFEASGFCYVNDIVIGILELLKYHPRVLYIDIDIHHGDGVQEAFYLTDRVMTVSFHKYGNYFFPGTGDMYEVGAESGRYYCLNVPLRDGIDDQSYKHLFQPVINQVVDFYQPTCIVLQCGADSLGCDRLGCFNLSIRGHGECVEYVKSFNIPLLVLGGGGYTVRNVARCWTYETSLLVEEAISEELPYSEYFEYFAPDFTLHPDVSTRIENQNSRQYLDQIRQTIFENLKMLNHAPSVQIHDVPADLLTYDRTDEADAEERGPEENYSRPEAPNEFYDGDHDNDKESDVEI
notes: SupT1 and 293 are human cell lines

For one data set, the target named is endogenous HDAC1 (UniProt Q13547 1-482). In words: repeated incubation of 293 or SupT1 extracts with the GST fusion, western blot of the depleted extract. For orientation: A western blot detects proteins with antibodies after separation by electrophoresis.
endogenous HDAC1, sequence (Q13547 whole entry, the tested form may be a part): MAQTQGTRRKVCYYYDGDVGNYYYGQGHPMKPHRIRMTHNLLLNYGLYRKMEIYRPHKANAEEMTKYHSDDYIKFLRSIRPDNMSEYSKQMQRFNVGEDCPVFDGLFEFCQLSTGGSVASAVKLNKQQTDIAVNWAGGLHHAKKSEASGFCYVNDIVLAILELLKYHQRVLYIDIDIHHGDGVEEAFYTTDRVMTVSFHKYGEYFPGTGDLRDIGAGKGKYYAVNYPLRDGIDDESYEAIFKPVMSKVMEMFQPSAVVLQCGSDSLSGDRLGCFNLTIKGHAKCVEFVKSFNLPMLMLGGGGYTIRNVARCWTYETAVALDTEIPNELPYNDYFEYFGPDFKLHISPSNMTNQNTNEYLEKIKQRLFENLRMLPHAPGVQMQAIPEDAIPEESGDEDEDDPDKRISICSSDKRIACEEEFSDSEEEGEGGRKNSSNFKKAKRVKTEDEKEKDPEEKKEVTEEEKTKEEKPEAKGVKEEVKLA
For another data set, the target named is T1, endogenous HDAC3, O15379.
T1 chain: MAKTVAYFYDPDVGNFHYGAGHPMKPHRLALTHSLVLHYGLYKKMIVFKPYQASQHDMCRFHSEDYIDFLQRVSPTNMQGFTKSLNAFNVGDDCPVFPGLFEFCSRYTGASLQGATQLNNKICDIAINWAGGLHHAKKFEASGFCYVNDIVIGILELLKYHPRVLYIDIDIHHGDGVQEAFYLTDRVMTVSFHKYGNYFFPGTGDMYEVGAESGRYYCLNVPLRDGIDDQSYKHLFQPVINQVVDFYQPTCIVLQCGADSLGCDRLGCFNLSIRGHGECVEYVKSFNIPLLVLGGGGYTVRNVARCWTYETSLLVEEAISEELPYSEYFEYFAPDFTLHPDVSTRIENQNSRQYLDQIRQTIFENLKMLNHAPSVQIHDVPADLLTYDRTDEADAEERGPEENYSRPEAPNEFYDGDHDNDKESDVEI

The target of data set [1] is T2, FLAG-tagged HDAC7-K86AK88A (expressed in DO11.10 cells) (human, UniProt Q8WUI4 1-952).
T2 construct: not shown: FLAG tag
T2 sequence: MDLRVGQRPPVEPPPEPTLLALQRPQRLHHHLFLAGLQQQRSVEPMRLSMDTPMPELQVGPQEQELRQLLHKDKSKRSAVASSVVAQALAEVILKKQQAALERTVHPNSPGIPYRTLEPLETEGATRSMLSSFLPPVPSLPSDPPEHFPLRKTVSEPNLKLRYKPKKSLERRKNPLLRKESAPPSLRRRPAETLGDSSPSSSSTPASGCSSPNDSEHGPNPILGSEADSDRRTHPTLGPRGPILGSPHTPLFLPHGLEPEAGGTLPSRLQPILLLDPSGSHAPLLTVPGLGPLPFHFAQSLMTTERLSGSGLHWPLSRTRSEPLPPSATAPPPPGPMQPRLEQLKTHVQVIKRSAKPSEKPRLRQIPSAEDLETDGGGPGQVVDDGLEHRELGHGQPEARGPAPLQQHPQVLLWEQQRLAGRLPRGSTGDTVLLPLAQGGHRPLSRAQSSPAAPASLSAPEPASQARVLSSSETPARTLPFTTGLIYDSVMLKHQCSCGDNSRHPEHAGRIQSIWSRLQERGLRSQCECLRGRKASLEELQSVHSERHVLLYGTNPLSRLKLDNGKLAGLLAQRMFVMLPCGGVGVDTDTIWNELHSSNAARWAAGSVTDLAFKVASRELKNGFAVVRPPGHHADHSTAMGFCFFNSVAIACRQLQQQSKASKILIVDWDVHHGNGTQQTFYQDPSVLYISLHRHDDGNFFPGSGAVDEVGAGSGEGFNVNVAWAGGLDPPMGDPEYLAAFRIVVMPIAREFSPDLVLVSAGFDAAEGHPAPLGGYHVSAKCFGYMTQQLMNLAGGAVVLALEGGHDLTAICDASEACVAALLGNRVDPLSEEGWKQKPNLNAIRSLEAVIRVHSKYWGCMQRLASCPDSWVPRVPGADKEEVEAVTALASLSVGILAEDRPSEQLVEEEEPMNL
Briefly: anti-FLAG immunoprecipitation from DO11.10 polyclonal cell lines, endogenous MEF2D.

The target of data set [2] is T3, FLAG-tagged HDAC7-ΔMEF (expressed in DO11.10 cells) (human, UniProt Q8WUI4 1-952).
T3 construct: not shown: FLAG tag
T3 sequence: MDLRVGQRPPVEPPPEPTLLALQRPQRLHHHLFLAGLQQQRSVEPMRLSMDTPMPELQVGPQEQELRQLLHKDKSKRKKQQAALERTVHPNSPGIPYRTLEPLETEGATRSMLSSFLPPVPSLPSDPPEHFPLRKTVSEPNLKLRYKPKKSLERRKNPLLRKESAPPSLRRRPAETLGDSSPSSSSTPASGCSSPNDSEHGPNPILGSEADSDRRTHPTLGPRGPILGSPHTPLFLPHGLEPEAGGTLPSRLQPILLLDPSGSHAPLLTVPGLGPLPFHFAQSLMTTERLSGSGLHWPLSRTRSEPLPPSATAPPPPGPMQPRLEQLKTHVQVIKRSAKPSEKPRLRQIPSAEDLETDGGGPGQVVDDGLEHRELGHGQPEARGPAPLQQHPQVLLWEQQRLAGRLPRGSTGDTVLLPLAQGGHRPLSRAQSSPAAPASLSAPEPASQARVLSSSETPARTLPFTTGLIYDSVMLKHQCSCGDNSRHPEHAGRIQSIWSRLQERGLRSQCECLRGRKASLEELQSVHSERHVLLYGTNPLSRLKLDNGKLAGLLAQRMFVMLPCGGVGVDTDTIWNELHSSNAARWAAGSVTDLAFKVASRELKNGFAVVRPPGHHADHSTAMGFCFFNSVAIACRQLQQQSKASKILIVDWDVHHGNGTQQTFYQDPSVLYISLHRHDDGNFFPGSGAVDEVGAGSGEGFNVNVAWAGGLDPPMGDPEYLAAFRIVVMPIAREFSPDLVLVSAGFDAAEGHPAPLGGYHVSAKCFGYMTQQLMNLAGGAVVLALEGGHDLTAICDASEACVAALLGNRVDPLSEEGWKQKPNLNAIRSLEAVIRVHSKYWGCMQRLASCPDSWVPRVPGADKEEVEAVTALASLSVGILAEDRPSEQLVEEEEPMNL
Described as above.

Data set [3] deals with B5. In words: cell-based or functional assay.
Data set [4] has as its target B5. Briefly: GST pull-down from SupT1 cell extracts, western blot.
In the data set “GST-HDAC4(aa 612-1084)” the target is B1. Briefly: repeated incubation of 293 or SupT1 extracts with the GST fusion, western blot of the depleted extract.

B1: the binding result with endogenous HDAC1 is “no binding”. The molecule further returned an HDAC activity associated with the GST pull-down from GST-HDAC4 depleted lysate against GST depleted lysate (fold reduction) with endogenous HDAC3, O15379 of 3.

B2: endogenous MEF2D of DO11.10 T-cell hybridoma cells (other, UniProt Q63943 1-514, looked up)
chain: MGRKKIQIQRITDERNRQVTFTKRKFGLMKKAYELSVLCDCEIALIIFNHSNKLFQYASTDMDKVLLKYTEYNEPHESRTNADIIETLRKKGFNGCDSPEPDGEDSLEQSPLLEDKYRRASEELDGLFRRYGSSVPAPNFAMPVTVPVSNQSSMQFSNPSSSLVTPSLVTSSLTDPRLLSPQQPALQRNSVSPGLPQRPASAGAMLGGDLNSANGACPSPVGNGYVSARASPGLLPVANGNSLNKVIPAKSPPPPTHNTQLGAPSRKPDLRVITSQGGKGLMHHLTEDHLDLNNAQRLGVSQSTHSLTTPVVSVATPSLLSQGLPFSSMPTAYNTDYQLPSAELSSLPAFSSPAGLALGNVTAWQQPQPPQQPQPPQPPQSQPQPPQPQPQQPPQQQPHLVPVSLSNLIPGSPLPHVGAALTVTTHPHISIKSEPVSPSRERSPAPPPPAVFPAARPEPGEGLSSPAGGSYETGDRDDGRGDFGPTLGLLRPAPEPEAEGSAVKRMRLDTWTLK
As to B2, the binding result in data set [1] and in data set [2] was “no binding” throughout.

B3: HDAC7-FLAG (full-length human HDAC7 with C-terminal FLAG tag, expressed in cells) (protein)
chain: MDLRVGQRPPVEPPPEPTLLALQRPQRLHHHLFLAGLQQQRSVEPMRLSMDTPMPELQVGPQEQELRQLLHKDKSKRSAVASSVVKQKLAEVILKKQQAALERTVHPNSPGIPYRTLEPLETEGATRSMLSSFLPPVPSLPSDPPEHFPLRKTVSEPNLKLRYKPKKSLERRKNPLLRKESAPPSLRRRPAETLGDSSPSSSSTPASGCSSPNDSEHGPNPILGSEADSDRRTHPTLGPRGPILGSPHTPLFLPHGLEPEAGGTLPSRLQPILLLDPSGSHAPLLTVPGLGPLPFHFAQSLMTTERLSGSGLHWPLSRTRSEPLPPSATAPPPPGPMQPRLEQLKTHVQVIKRSAKPSEKPRLRQIPSAEDLETDGGGPGQVVDDGLEHRELGHGQPEARGPAPLQQHPQVLLWEQQRLAGRLPRGSTGDTVLLPLAQGGHRPLSRAQSSPAAPASLSAPEPASQARVLSSSETPARTLPFTTGLIYDSVMLKHQCSCGDNSRHPEHAGRIQSIWSRLQERGLRSQCECLRGRKASLEELQSVHSERHVLLYGTNPLSRLKLDNGKLAGLLAQRMFVMLPCGGVGVDTDTIWNELHSSNAARWAAGSVTDLAFKVASRELKNGFAVVRPPGHHADHSTAMGFCFFNSVAIACRQLQQQSKASKILIVDWDVHHGNGTQQTFYQDPSVLYISLHRHDDGNFFPGSGAVDEVGAGSGEGFNVNVAWAGGLDPPMGDPEYLAAFRIVVMPIAREFSPDLVLVSAGFDAAEGHPAPLGGYHVSAKCFGYMTQQLMNLAGGAVVLALEGGHDLTAICDASEACVAALLGNRVDPLSEEGWKQKPNLNAIRSLEAVIRVHSKYWGCMQRLASCPDSWVPRVPGADKEEVEAVTALASLSVGILAEDRPSEQLVEEEEPMNL
With B3, the “HDAC activity, nuclear against cytoplasmic fraction” value in the data set with endogenous HDAC3, O15379 turned out to be 4.5 times higher. In the data set with endogenous HDAC3 [3], this molecule displayed an HDAC activity of HDAC7-FLAG immunoprecipitated from the cytoplasmic fraction of 293 cells of 3240 counts/min and an HDAC activity of HDAC7-FLAG immunoprecipitated from the nuclear fraction of 293 cells of 14800 counts/min.

B4: GST-HDAC7(aa 487-912) (enzyme)
chain: YDSVMLKHQCSCGDNSRHPEHAGRIQSIWSRLQERGLRSQCECLRGRKASLEELQSVHSERHVLLYGTNPLSRLKLDNGKLAGLLAQRMFVMLPCGGVGVDTDTIWNELHSSNAARWAAGSVTDLAFKVASRELKNGFAVVRPPGHHADHSTAMGFCFFNSVAIACRQLQQQSKASKILIVDWDVHHGNGTQQTFYQDPSVLYISLHRHDDGNFFPGSGAVDEVGAGSGEGFNVNVAWAGGLDPPMGDPEYLAAFRIVVMPIAREFSPDLVLVSAGFDAAEGHPAPLGGYHVSAKCFGYMTQQLMNLAGGAVVLALEGGHDLTAICDASEACVAALLGNRVDPLSEEGWKQKPNLNAIRSLEAVIRVHSKYWGCMQRLASCPDSWVPRVPGADKEEVEAVTALASLSVGILAEDRPSEQLVEEEEP
notes: not shown: glutathione-S-transferase (GST) of the pGEX4T1 vector (Pharmacia), N-terminal fusion partner
Turning to B4, the binding result in the data set with endogenous HDAC3 [4] is listed as “no binding”.
Take B5: in the data set with GST-HDAC4(aa 612-1084), the binding result was “binds”.
